From PMC11145185, “Inhibition of mRNA nuclear export promotes SARS-CoV-2 pathogenesis” (Proceedings of the National Academy of Sciences of the …, 2024) come the findings set out here.

B1: GST-tagged SARS-CoV-2 Nsp1 E55A/E57A/K58E (natural protein)
chain: MESLVPGFNEKTHVQLSLPVLQVRDVLVRGFGDSVEEVLSEARQHLKDGTCGLVAVAEGVLPQLEQPYVFIKRSDARTAPHGHVMVELVAELEGIQYGRSGETLGVLVPHVGEIPVAYRKVLLRKNGNKGAGGHSYGADLKSFDLGDELGTDPYEDFQENWNTKHSSGVTRELMRELNGG
B2: GST-tagged SARS-CoV-2 Nsp1 N-terminal domain (residues 1 to 129) (domain or fragment)
chain: MESLVPGFNEKTHVQLSLPVLQVRDVLVRGFGDSVEEVLSEARQHLKDGTCGLVEVEKGVLPQLEQPYVFIKRSDARTAPHGHVMVELVAELEGIQYGRSGETLGVLVPHVGEIPVAYRKVLLRKNGNK
B3: GST-tagged SARS-CoV-2 Nsp1 L27D/V28D (natural protein)
chain: B1 chain with L27D, V28D, A55E, A57E, E58K
notes: also called hydrophobic patch mutant
B4: GST-tagged SARS-CoV-2 Nsp1 E91K/L92A/E93K/I95A (natural protein)
chain: B1 chain with A55E, A57E, E58K, E91K, L92A, E93K, I95A

Residue numbers refer to the chain shown, from its start. Names and notes keep the numbering of the source.

The experiment addresses T1, human NXF1(117-619)-NXT1 heterodimer, wild type (human, UniProt Q9UBU9 117-619; Q9UKK6 1-140).
T1 construct: human NXF1 (mRNA export receptor), residues 117-619; human NXT1, coexpressed with NXF1; also called NXF1-NXT1; mRNA export receptor; source: E. coli Rosetta, coexpressed, purified (details in SI Appendix)
T1 sequence (looked up) 1: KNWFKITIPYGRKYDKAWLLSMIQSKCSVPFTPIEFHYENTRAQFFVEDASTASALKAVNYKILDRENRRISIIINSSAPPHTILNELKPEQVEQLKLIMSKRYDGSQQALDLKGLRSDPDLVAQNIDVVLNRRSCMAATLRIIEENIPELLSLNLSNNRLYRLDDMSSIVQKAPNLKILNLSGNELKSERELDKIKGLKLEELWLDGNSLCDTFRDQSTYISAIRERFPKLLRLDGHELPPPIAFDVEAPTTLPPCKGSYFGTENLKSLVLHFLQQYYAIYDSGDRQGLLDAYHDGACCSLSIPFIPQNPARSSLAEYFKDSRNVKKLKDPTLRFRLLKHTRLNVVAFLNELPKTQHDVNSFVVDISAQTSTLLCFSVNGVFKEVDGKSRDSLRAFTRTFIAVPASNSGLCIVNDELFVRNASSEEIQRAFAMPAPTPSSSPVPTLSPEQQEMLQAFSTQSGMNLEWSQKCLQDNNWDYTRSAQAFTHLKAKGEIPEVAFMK
T1 sequence (looked up) 2: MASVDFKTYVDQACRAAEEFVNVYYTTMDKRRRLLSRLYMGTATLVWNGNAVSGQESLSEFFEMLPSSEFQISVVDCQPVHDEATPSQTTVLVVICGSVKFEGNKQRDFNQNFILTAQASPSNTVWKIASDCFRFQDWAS
As to conditions: both partners purified.
As to B1, the binding result is listed as “binds”.
Under B2 stands “binds”; under B3, “binds”; under B4, “binds”.
